For experiment [1], the target named is T1, cpTatC (pea (endogenous in pea thylakoids)). Nature of the experiment: co-IP.
Experiment [2] addresses T1, cpTatC. Nature of the experiment: radioligand binding.

B1: tOE17 V-20F precursor protein (natural protein)
chain: MASAEGDAVAQAGRRAFIGLVATGIVGGALSQAARAETVKTIKIGAPPPPSGGLPGTLNSDQARDFDLPLKERFYLQPLPPAEAAARVKTSAQDIINLKPLIDKKAWPYVQNDLRLRASYLRYDLKTVIASKPKEEKKSLKELTGKLFSTIDDLDHAAKIKSTPEAEKYFAATKDALGDVLAKLG
modifications: [3H]-Leu radiolabel (unlabeled tOE17 used as the chase in the dissociation test)
As to B1, the “stoichiometry N” value in experiment [1] is 0.79 tOE17 per cpTatC. Besides, in experiment [2], the Kd came out at 1.07 nM and the “stoichiometry N” value was found to be 1.27 tOE17 per cpTatC.

For orientation: stoichiometry N means the number of molecules, sites or subunits per partner or assembly. As usually defined, the Kd is the constant that tells how readily two partners part at equilibrium. The low end stands for higher affinity, the high end for lower affinity.

For the origin of these results see article PMC3352945 (The Journal of Cell Biology, 2012).
